Assay [1] addresses acetylcholine receptor. The experiment in a line: SPR, peptide at 10 uM over immobilized acetylcholine receptor. A general note: In SPR one partner is held on a chip, and binding of the other changes the refractive index at the surface.
The target in assay [2] is acetylcholine receptor. Briefly: SPR, AchR immobilized on chip.
Assay [3] concerns the target acetylcholine receptor. The experiment in a line: SPR, receptor immobilized, peptide 10 uM.
Assay [4] addresses acetylcholine receptor. Briefly: SPR, AchR immobilised on chip, peptide 10 uM.
Assay [5] addresses acetylcholine receptor. The experiment in a line: SPR, peptide at 10 µM on acetylcholine receptor.
Assay [6] addresses acetylcholine receptor. Briefly: SPR, AchR on chip, peptide 10 uM.

The source of these data is patent publication US20250011363A1, “OPTIMIZED SHORTENED PEPTIDE THAT BINDS TO ACETYLCHOLINE RECEPTOR, AND USE THEREOF” (SKINMED CO., LTD., priority 2021, published 2025).

In turn, KRLLRK [6mer-2-70] yielded a Binding affinity (RU) in assay [1] of 126 RU.
In the case of RWVQRK [6mer-2-106], the Binding affinity (RU) in assay [1] is 123 RU.
In turn, RKACEK [6mer-1-1200] registered a Binding affinity (RU) in assay [1] of 21 RU.
In assay [1], KSQYKR [6mer-2-85] displayed a Binding affinity (RU) of 137 RU.
In the case of KSRSKK [6mer-2-89], the Binding affinity (RU) in assay [1] came out at 141 RU.
Take RWQTRR [6mer-2-93]: the Binding affinity (RU) in assay [1] is 133 RU.
Same read-out and setting: in the case of KQVYKR [6mer-2-71] it was 141 RU; in that of KWFLRK [6mer-2-69], 139 RU.
KSFQRR [6mer-2-88] displayed a Binding affinity (RU) in assay [1] of 141 RU.
As for RRGVRRR, the Binding affinity (relative to RRGVRR) (value relative to the RRGVRR sequence) in assay [2] amounted to 188.
In turn, RGFTRR [6mer-2-105] had a Binding affinity (RU) in assay [1] of 151 RU.
In assay [2], RRRGVRR displayed a Binding affinity (relative to RRGVRR) (value relative to the RRGVRR sequence) of 185.
On to RRRCRR [6mer-2-100], for which, in assay [1], the Binding affinity (RU) is 142 RU.
For the molecule RLYQRK [6mer-2-94], the Binding affinity (RU) in assay [1] is 126 RU.
As to KLIRRK [6mer-2-111], the Binding affinity (RU) in assay [1] was determined as 123 RU.
Still for that read-out and setting: in the case of KVVCKR [6mer-2-92] it was 131 RU; in that of RGVCRK [6mer-2-104], 145 RU.
The molecule DRRGVRR returned a Binding affinity (relative to RRGVRR) (value relative to the RRGVRR sequence) in assay [2] of 159.
For the molecule KKTNKR [6mer-1-1199], the Binding affinity (RU) in assay [1] was 39 RU.
With RRGVRRQ, the Binding affinity (relative to RRGVRR) (value relative to the RRGVRR sequence) in assay [2] was determined as 105.
Still for that read-out and setting: in the case of RRGVRRK it was 171.
In turn, RGVYRK [6mer-2-107] displayed a Binding affinity (RU) in assay [1] of 144 RU.
On to KSLLR [5mer-ND], for which, in assay [2], the Binding affinity (RU) worked out at 23 RU.
As to RRIYRK [6mer-2-95], the Binding affinity (RU) in assay [1] worked out at 142 RU.
Regarding KGRTKR [6mer-2-90], the Binding affinity (RU) in assay [1] is 133 RU.
On the same count and under the same terms, next, RRQQRR [6mer-2-98]: 148 RU.
In assay [2], RRGVRRH yielded a Binding affinity (relative to RRGVRR) (value relative to the RRGVRR sequence) of 154.
RVVYKK [6mer-2-108]: the Binding affinity (RU) in assay [1] was 153 RU.
Still for that read-out and setting: next, KQFRRK [6mer-2-86]: 126 RU.
In the case of RRGVRRE, the Binding affinity (relative to RRGVRR) (value relative to the RRGVRR sequence) in assay [2] was 33.
In assay [1], KQRYKK [6mer-2-84] had a Binding affinity (RU) of 139 RU.
With RRATER [6mer-1-1198], the Binding affinity (RU) in assay [1] worked out at 28 RU.
In turn, KWIYKR [6mer-2-91] gave a Binding affinity (RU) in assay [1] of 121 RU.
KRIQKK [6mer-2-72] registered a Binding affinity (RU) in assay [1] of 144 RU.
For KLYTRK [6mer-2-75], the Binding affinity (RU) in assay [1] turned out to be 133 RU.
Consider RRGVRRD, for which the Binding affinity (relative to RRGVRR) (value relative to the RRGVRR sequence) in assay [2] came to 61.
In the case of KSQLKK [6mer-2-110], in assay [1], the Binding affinity (RU) was 153 RU.
Regarding KRYSRK [6mer-2-113], in assay [1], the Binding affinity (RU) is 145 RU.
Regarding RRQYKR [6mer-2-80], in assay [1], the Binding affinity (RU) came to 148 RU.
In assay [1], RRVSRR [6mer-2-81] had a Binding affinity (RU) of 121 RU.
Take RRLTKR [6mer-2-87]: the Binding affinity (RU) in assay [1] came to 142 RU.
For ERRGVRR, in assay [2], the Binding affinity (relative to RRGVRR) (value relative to the RRGVRR sequence) turned out to be 43.
Molecule RWIYKR [6mer-2-74] showed a Binding affinity (RU) in assay [1] of 136 RU.
On to KQQTRR [6mer-2-77], for which the Binding affinity (RU) in assay [1] was found to be 123 RU.
With RLICRK [6mer-2-101], the Binding affinity (RU) in assay [1] was 154 RU.
On to KVYQKK [6mer-2-102], for which, in assay [1], the Binding affinity (RU) was 139 RU.
Molecule QRRGVRR registered a Binding affinity (relative to RRGVRR) (value relative to the RRGVRR sequence) in assay [2] of 101.
As for RQLSKR [6mer-2-79], in assay [1], the Binding affinity (RU) stood at 135 RU.
Take RWRYKR [6mer-2-136]: the Binding affinity (RU) in assay [2] was 194 RU. The Binding affinity in assay [3] came to 194 RU.
In assay [1], KWRQRK [6mer-2-96] displayed a Binding affinity (RU) of 154 RU.
For the molecule RRQSRK [6mer-2-76], the Binding affinity (RU) in assay [1] was determined as 142 RU.
Consider RRGVRR [6mer-1-210], for which the Binding affinity (RU) in assay [2] and in assay [4] was 184 RU throughout.
In assay [1], RLYTKR [6mer-2-73] displayed a Binding affinity (RU) of 139 RU.
In assay [2], KRRGVRR gave a Binding affinity (relative to RRGVRR) (value relative to the RRGVRR sequence) of 169.
The molecule KRYLKR [6mer-2-78] came in with a Binding affinity (RU) in assay [1] of 135 RU.
Regarding RGVQKK [6mer-2-82], the Binding affinity (RU) in assay [1] turned out to be 124 RU.
RVVTKK [6mer-2-103] had a Binding affinity (RU) in assay [1] of 136 RU.
On to HRRGVRR, for which, in assay [2], the Binding affinity (relative to RRGVRR) (value relative to the RRGVRR sequence) was found to be 160.
Take RQRSRR [6mer-2-99]: in assay [1], the Binding affinity (RU) was determined as 151 RU.
RKSLLR [Spep 6mer]: the Binding affinity (RU) in assay [2] worked out at 35 RU.
RLQQKR [6mer-2-112] returned a Binding affinity (RU) in assay [1] of 142 RU.
With RRVYRK [6mer-2-109], the Binding affinity (RU) in assay [1] worked out at 144 RU.
RQFYRK [6mer-2-97] came in with a Binding affinity (RU) in assay [1] of 154 RU.
For the molecule RRQRR [5mer-73], the Binding affinity (RU) in assay [2] and in assay [5] was 179 RU each time.
On to RSYSR [5mer-311], for which the Binding affinity (RU) in assay [2] and in assay [6] was 167 RU each time.
The molecule KQYQRR [6mer-2-83] yielded a Binding affinity (RU) in assay [1] of 135 RU.
